According to publication PMC9934533:

Biological target: hybrid aspen (poplar) cellulose synthase isoform-8 (CesA8) (hybrid aspen (poplar))
Test: cryo-EM structure

- stoichiometry N: 3
Substance: hybrid aspen (poplar) cellulose synthase isoform-8 (CesA8) (enzyme)
